Experimental data reported in patent US20070253950A1 (Pfizer, published 2007).
Residue numbers refer to the chain shown, from its start. Names and notes keep the numbering of the source.

Experiments:
[1] = molecular target: T1, cynomolgus monkey RAGE, on cells (cynomolgus monkey, UniProt Q15109 23-404 (human entry)); experiment: cell-based ELISA, transfected 293 cells
T1 construct: on transfected 293 cells or endogenous in lung sections; also called 293-cyno monkey RAGE; RAGE in monkey lung
T1 chain: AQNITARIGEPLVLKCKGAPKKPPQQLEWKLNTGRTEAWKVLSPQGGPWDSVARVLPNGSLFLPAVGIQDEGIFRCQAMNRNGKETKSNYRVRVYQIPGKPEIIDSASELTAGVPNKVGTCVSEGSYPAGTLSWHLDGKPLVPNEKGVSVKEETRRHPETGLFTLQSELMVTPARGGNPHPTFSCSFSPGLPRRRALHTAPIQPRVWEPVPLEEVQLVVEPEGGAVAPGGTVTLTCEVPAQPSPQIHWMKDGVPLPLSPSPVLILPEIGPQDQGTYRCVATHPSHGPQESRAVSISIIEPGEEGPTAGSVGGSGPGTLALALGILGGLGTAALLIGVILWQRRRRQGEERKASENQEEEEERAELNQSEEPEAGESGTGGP
Experimental: (§1) Human embryonic kidney 293 cells (American Tissue Type Culture, Manassas, Va.) cells were plated at 5×10⁶ cells per 10 cm² tissue culture plate and cultured overnight at 37° C. The next day cells were transfected with RAGE expression plasmids (pAdori1-3 vector encoding mouse, human, baboon, cynomologus monkey or rabbit RAGE) using LF2000 reagent (Invitrogen, Carlsbad Calif.) at a 4:1 ratio of reagent to plasmid DNA using the manufacturers protocol. Cells were harvested 48 hrs post-transfection using trypsin, washed once with phosphate buffered saline (PBS), then suspended in growth media without serum at a concentration of 2×10⁶ cells/ml.
(§2) Primary antibodies at 1 μg/ml were serially diluted at 1:2 or 1:3 in PBS containing 1% bovine serum albumin (BSA) in a 96-well plate. RAGE-transfected 293 cells or control parental 293 cells (50 μl) at 2×10⁶ cells/ml in serum-free growth medium were added to U-bottom 96 well plate for a final concentration of 1×10⁵ cells/well. The cells were centrifuged at 1600 rpm for 2 minutes. The supernatants were gently discarded by hand with a one-time swing and the plate was patted gently to loose the cell pellet. The diluted primary anti-RAGE antibodies or isotype-matching control antibodies (100 μl) in cold PBS containing 10% fetal calf serum (FCS) were added to the cells and incubated on ice for 1 hour. The cells were stained with 100 μl of diluted secondary anti-IgG antibody HRP conjugates (Pierce Biotechnology, Rockford, Ill.) on ice for 1 hour. Following each step of primary antibody and secondary antibody incubations, the cells were washed 3 times with ice-cold PBS. 100 μl of substrate TMB1 component (BIO FX, TMBW-0100-01) was added to the plate and incubated for 5-30 minutes at room temperature. The color development was stopped by adding 100 μl of 0.18M H₂SO₄. The cells were centrifuged and the supernatants are transferred to a fresh plate and read at 450 nm (Soft MAX pro 4.0, Molecular Devices Corporation, Sunnyvale, Calif.).

[2] = molecular target: T2, human RAGE, full length, on cells (human, UniProt Q15109 23-404); experiment: cell-based ELISA, transfected 293 cells
T2 construct: on transfected or infected 293 cells, stably transfected CHO cells, or endogenous in human lung sections; also called cell-surface hRAGE; 293-human RAGE
Experimental: as §1, §2

[3] = molecular target: T3, baboon RAGE, on cells (baboon, UniProt Q15109 23-404 (human entry)); experiment: cell-based ELISA, transfected 293 cells
T3 construct: on transfected 293 cells or endogenous in lung sections; also called 293-baboon RAGE; RAGE in baboon lung
T3 chain: T1 chain with G347R
Experimental: as §1, §2

[4] = molecular target: T4, murine RAGE, full length, on cells (murine, UniProt Q62151 23-402); experiment: cell-based ELISA, transfected 293 cells
T4 construct: on transfected or infected 293 cells; also called 293-murine RAGE; cell-surface mRAGE
T4 chain: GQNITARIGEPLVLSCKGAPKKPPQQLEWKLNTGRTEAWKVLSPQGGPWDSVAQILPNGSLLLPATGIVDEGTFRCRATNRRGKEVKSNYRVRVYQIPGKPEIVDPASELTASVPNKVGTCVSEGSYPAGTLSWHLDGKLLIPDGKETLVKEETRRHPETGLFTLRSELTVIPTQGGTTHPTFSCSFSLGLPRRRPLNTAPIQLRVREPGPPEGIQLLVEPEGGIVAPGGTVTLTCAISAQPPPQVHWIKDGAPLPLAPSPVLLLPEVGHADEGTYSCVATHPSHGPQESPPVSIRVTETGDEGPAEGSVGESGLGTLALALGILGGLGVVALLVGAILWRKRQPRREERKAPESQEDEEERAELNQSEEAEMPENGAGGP
Experimental: as §1, §2

[5] = molecular target: T5, human RAGE-Fc fusion protein (human, UniProt Q15109 23-344); experiment: ligand competition ELISA, panel 'Blocks hRAGE-Fc interaction with A-beta'; blocked ligand amyloid beta 1-42 peptide
T5 construct: amino acids 1-344 of human RAGE appended to the Fc domain of human IgG; also called hRAGE-Fc; huRAGE-Fc

B1: chimeric XT-M4 (antibody, V domains shown)
VH: EVQLVESGGGLVQPGRSLKLSCVVSGFTFNNYWMTWIRQTPGKGLEWVASINNSGDNTYYPDSVKDRFTISRDNAKSTLYLQMNSLRSEDTATYYCTRGGDITTGFDYWGQGVMVTVSS
VL: DIQMTQSPSSMSVSLGDTITITCRASQDVGIYVNWFQQKPGKSPRRMIYRATNLADGVPSRFSGSRSGSIYSLTISSLESEDVADYHCLEFDEHPLTFGSGTKVEIK
modifications: N-linked oligosaccharide at Asn52 (CDR2) on part of the heavy chains
notes: rat XT-M4 variable regions fused to human kappa light chain and human IgG1 heavy chain constant regions; L234A and G237A in the human IgG1 Fc region; also called chimeric antibody XT-M4; XT-M4-A-1
EC50 [1]: ~1.66 nM | EC50 [2]: ~0.8 nM | EC50 [3]: ~1.25 nM | EC50 [4]: ~1.5 nM | IC50 (read off the curve) [5]: ~0.1 µg/mL
